From PMC5128727, “Metalloprotease SPRTN/DVC1 Orchestrates Replication-Coupled DNA-Protein Crosslink Repair”

Biological target: T1, SPRTN WT (human, UniProt Q9H040 1-489)
T1 sequence: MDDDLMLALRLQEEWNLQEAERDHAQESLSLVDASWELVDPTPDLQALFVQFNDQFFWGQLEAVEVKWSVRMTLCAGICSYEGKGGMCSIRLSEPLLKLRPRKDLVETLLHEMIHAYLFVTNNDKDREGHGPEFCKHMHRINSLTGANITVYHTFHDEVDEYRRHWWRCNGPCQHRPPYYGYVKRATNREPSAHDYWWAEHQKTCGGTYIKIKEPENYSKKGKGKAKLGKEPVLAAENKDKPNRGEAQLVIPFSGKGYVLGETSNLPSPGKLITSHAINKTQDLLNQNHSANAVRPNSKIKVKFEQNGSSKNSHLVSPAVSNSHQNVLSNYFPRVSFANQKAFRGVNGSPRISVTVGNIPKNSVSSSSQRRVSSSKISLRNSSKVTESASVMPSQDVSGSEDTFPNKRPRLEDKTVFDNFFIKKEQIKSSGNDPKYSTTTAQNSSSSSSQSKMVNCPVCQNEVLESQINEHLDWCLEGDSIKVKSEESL
Assay: fluorescence polarization; affinity similar to dsDNA; Probe annealing buffer: 10 mM HEPES pH 7.5, 50 mM NaCl; FP assay buffer and temperature not in the material
Settings: protein: recombinant; tags: His-ZB tag cleaved by TEV; label: FITC (position not in material); single strand

B1: ssDNA (OD1) (ssDNA)
DNA: ATCGATAGTCGGATCCTCTAGACAGCTCCATGTAGCAAGGCACTGGTAGAATTCGGCAGCGTC
- binding result: binds
